Measurements reported in paper PMC4731814.

Columns and labels:
human plasminogen = test: ELISA; conditions: bacteria OD600 = 0.6 bound to microtiter plates; 1 μM human PLG; parent: est. 0.29; read off a plot
[1] = molecular target: tricellulin first extracellular loop fragment K217A (human) (UniProt Q8N4S9); test: SPR; BIAcore X; tricellulin proteins amine-coupled on a CM5 chip; human PLG as analyte at 62.5-1000 nM; HBS-P buffer pH 7.4, 0.15 M NaCl, 37 °C, 30 μl/min; 1:1 Langmuir binding model
[2] = molecular target: tricellulin first extracellular loop fragment K217A K252A (human) (UniProt Q8N4S9); test: as above
[3] = molecular target: tricellulin first extracellular loop fragment K252A (human) (UniProt Q8N4S9); test: as above
[4] = molecular target: tricellulin first extracellular loop fragment, wild type (human) (UniProt Q8N4S9); test: as above
[5] = molecular target: tricellulin second extracellular loop fragment (human) (UniProt Q8N4S9); test: as above

Substance: streptococcal surface enolase on GAS strain NIH35 (wild type) (from UniProt P69949) K252L; K255L; K434L; K435L
- response (human plasminogen): 0.17 A450

Substance: human plasminogen (natural protein)
- Kd [1]: 183 nM
- koff [1]: 0.0298 s⁻¹
- kon [1]: 165000 M⁻¹ s⁻¹
- Kd [2]: 1030 nM
- koff [2]: 0.0742 s⁻¹
- kon [2]: 72400 M⁻¹ s⁻¹
- Kd [3]: 3130 nM
- koff [3]: 0.0184 s⁻¹
- kon [3]: 5890 M⁻¹ s⁻¹
- Kd [4]: 51.5 nM
- koff [4]: 7.13 s⁻¹
- kon [4]: 1.39e+08 M⁻¹ s⁻¹
- Kd [5]: 1270 nM
- koff [5]: 0.214 s⁻¹
- kon [5]: 169000 M⁻¹ s⁻¹

Substance: streptococcal surface enolase on GAS strain NIH35 (wild type) (from UniProt P69949) K252L; K255L
- response (human plasminogen): 0.23 A450

Substance: streptococcal surface enolase on GAS strain NIH35 (wild type) (from UniProt P69949) K434L; K435L
- response (human plasminogen): 0.3 A450
